According to patent publication US20230132049A1 (Genmab, published 2023):
Read-outs that look alike come from different tables or passages of the source.

Assays:
[1] = molecular target: T1, human CD30 (human, UniProt P28908 19-595); test: flow cytometry on Expi293F cells transfected with human CD30
T1 construct: Endogenous on HL, ALCL and NHL tumor cell lines, or full-length huCD30 (Uniprot P28908) transiently expressed in Expi293F or HEK293 cells; also called huCD30; TNFRSF8
T1 sequence: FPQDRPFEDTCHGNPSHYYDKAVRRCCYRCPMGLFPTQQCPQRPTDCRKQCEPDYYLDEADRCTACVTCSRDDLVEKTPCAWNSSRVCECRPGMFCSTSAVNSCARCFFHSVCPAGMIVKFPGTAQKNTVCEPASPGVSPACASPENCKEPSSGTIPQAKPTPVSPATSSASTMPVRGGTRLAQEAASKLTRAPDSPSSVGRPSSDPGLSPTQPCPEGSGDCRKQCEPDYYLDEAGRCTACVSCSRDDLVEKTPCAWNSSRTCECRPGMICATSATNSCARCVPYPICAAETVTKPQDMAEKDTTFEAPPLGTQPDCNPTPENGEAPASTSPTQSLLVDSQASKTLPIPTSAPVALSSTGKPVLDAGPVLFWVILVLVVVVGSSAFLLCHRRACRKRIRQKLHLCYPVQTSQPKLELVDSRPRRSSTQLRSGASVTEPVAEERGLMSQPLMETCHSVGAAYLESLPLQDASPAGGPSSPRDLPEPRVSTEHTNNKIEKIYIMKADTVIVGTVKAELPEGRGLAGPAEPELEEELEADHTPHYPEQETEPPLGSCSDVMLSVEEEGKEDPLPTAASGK
Protocol: Cells (3×10⁴ cells/well) were incubated in polystyrene 96-well round-bottom plates (Thermo Scientific, cat. no. 163320) with serial dilutions of antibodies (ranging from 0.0002 to 50 μg/mL in 4-fold dilution steps) in 50 μL staining buffer at 4° C. for 30 min. Experiments were performed in technical duplicate. After washing twice in staining buffer, cells were incubated in 50 μL secondary antibody at 4° C. for 30 min. […] Cells were washed twice in staining buffer, resuspended in 30 μL staining buffer containing 0.4% EDTA and the ToPro-3 viability marker (Invitrogen, cat. no. T3605) diluted 1:10,000. Cells were analyzed on an iQue Screener (Intellicyt Corporation, USA). Binding curves were analyzed using non-linear regression (sigmoidal dose-response with variable slope) using GraphPad Prism V9.0.0 software (GraphPad Software, San Diego, Calif., USA).

[2] = molecular target: T2, rhesus monkey (Macaca mulatta) CD30 (rhesus monkey, UniProt P28908 19-595 (human entry)); test: flow cytometry on Expi293F cells transfected with rhesus monkey CD30
T2 construct: Full-length construct expressed in Expi293F cells; also called mmCD30
T2 chain: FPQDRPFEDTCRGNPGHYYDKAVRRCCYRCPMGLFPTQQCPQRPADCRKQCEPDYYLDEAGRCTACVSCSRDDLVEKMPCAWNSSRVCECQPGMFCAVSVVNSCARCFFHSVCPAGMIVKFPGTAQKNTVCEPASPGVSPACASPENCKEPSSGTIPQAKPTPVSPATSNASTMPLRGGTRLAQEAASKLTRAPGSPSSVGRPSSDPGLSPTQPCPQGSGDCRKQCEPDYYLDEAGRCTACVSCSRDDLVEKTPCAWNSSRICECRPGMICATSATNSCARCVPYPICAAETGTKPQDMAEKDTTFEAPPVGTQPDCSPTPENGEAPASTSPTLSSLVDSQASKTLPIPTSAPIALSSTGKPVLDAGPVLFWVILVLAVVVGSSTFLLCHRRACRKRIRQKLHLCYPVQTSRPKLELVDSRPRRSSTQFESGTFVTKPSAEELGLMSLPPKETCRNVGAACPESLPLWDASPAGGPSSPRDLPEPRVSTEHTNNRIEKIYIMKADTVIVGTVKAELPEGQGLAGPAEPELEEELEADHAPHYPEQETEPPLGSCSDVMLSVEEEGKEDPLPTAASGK

[3] = molecular target: T1, human CD30; test: flow cytometry on DEL cells
[4] = molecular target: T1, human CD30; test: flow cytometry on NCEB-1 cells
Protocol: (§1) Cells (3×10⁴ cells/well) were incubated in polystyrene 96-well round-bottom plates (Greiner bio-one, cat. no. 650180) with serial dilutions of antibodies (range 0.0046 to 10 μg/mL in 3-fold dilution steps) in 50 μL staining buffer at 4° C. for 30 min. After washing twice in staining buffer, cells were incubated with 50 μL secondary antibody at 4° C. for 30 min. […] Next, cells were washed twice in staining buffer, resuspended in 100 μL staining buffer supplemented with TO-PRO-3 iodide (Thermo Fisher Scientific; cat. no. T3605; 1:8000 dilution) and analyzed on a FACSCelesta flow cytometer (BD Biosciences, USA). Live cells were gated based on FSC/SSC and absence of TOPRO-3 staining. Binding curves were analyzed by non-linear regression of log-transformed data (sigmoidal dose-response with variable slope, four parameters) using GraphPad Prism V7.02 software (GraphPad Software, San Diego, Calif., USA).

[5] = molecular target: T2, rhesus monkey (Macaca mulatta) CD30; test: flow cytometry on Expi293F cells transfected with rhesus monkey CD30
[6] = molecular target: T1, human CD30; test: cell-based or functional assay
[7] = molecular target: T1, human CD30; test: flow cytometry on SU-DHL-1 cells
Protocol: Binding of CD3×CD30 bispecific antibodies to two CD30-expressing human tumor cell lines SU-DHL-1 (ALCL; ATCC, cat. no. ACC 356) and HDLM-2 (HL; ATCC, cat. no. CRL-2965) was analyzed by flow cytometry.
as §1

[8] = molecular target: T2, rhesus monkey (Macaca mulatta) CD30; test: flow cytometry on Expi293F cells transfected with rhesus monkey CD30
[9] = molecular target: T2, rhesus monkey (Macaca mulatta) CD30; test: as above

B1: IgG1-CD30-HRS-3-FEAR (antibody, V domains shown)
VH: QVQLQQSGAELARPGASVKMSCKASGYTFTTYTIHWVRQRPGHDLEWIGYINPSSGYSDYNQNFKGKTTLTADKSSNTAYMQLNSLTSEDSAVYYCARRADYGNYEYTWFAYWGQGTTVTVSS
VL: DIVMTQSPKFMSTSVGDRVTVTCKASQNVGTNVAWFQQKPGQSPKVLIYSASYRYSGVPDRFTGSGSGTDFTLTISNVQSEDLAEYFCQQYHTYPLTFGGGTKLEINR
notes: Monospecific, bivalent parental antibody
[1]
  EC50 (read off the curve): ~0.06 µg/mL
[2]
  EC50 (read off the curve): ~0.1 µg/mL

B2: IgG1-CD30-MDX060-FERR (antibody)
heavy: QVQLQQWGAGLLKPSETLSLTCAVYGGSFSAYYWSWIRQPPGKGLEWIGDINHGGGTNYNPSLKSRVTISVDTSKNQFSLKLNSVTAADTAVYYCASLTAYWGQGSLVTVSSASTKGPSVFPLAPSSKSTSGGTAALGCLVKDYFPEPVTVSWNSGALTSGVHTFPAVLQSSGLYSLSSVVTVPSSSLGTQTYICNVNHKPSNTKVDKRVEPKSCDKTHTCPPCPAPEFERGPSVFLFPPKPKDTLMISRTPEVTCVVVDVSHEDPEVKFNWYVDGVEVHNAKTKPREEQYNSTYRVVSVLTVLHQDWLNGKEYKCKVSNKALPAPIEKTISKAKGQPREPQVYTLPPSREEMTKNQVSLTCLVKGFYPSDIAVEWESNGQPENNYKTTPPVLDSDGSFFLYSRLTVDKSRWQQGNVFSCSVMHEALHNHYTQKSLSLSPG
light: DIQMTQSPTSLSASVGDRVTITCRASQGISSWLTWYQQKPEKAPKSLIYAASSLQSGVPSRFSGSGSGTDFTLTISSLQPEDFATYYCQQYDSYPITFGQGTRLEIKRTVAAPSVFIFPPSDEQLKSGTASVVCLLNNFYPREAKVQWKVDNALQSGNSQESVTEQDSKDSTYSLSSTLTLSKADYEKHKVYACEVTHQGLSSPVTKSFNRGEC
notes: Monospecific, bivalent parental antibody; also called IgG1-huCD30-MDX060-FERR
[3]
  EC50 (read off the curve): ~0.09 µg/mL
[4]
  EC50 (read off the curve): ~0.05 µg/mL

B3: bsG1-huCD3-FEAL×CD30-HeFi-I-FEAR (bispecific antibody, human IgG1, kappa, lambda)
heavy 1: not shown
light 1: not shown
heavy 2: EVKLVESGGGLVQPGGSLRLSCATSGFTFSDYYMNWVRQPPGKALEWLGFIRNKANGYTTEFSASVMGRFTISRDDSQSILYLQMNTLRAEDSATYYCARDPPYGNPHYYAMDYWGQGTSVTVSSASTKGPSVFPLAPSSKSTSGGTAALGCLVKDYFPEPVTVSWNSGALTSGVHTFPAVLQSSGLYSLSSVVTVPSSSLGTQTYICNVNHKPSNTKVDKRVEPKSCDKTHTCPPCPAPEFEGGPSVFLFPPKPKDTLMISRTPEVTCVVVAVSHEDPEVKFNWYVDGVEVHNAKTKPREEQYNSTYRVVSVLTVLHQDWLNGKEYKCKVSNKALPAPIEKTISKAKGQPREPQVYTLPPSREEMTKNQVSLTCLVKGFYPSDIAVEWESNGQPENNYKTTPPVLDSDGSFFLYSRLTVDKSRWQQGNVFSCSVMHEALHNHYTQKSLSLSPG
light 2: not shown
notes: Bispecific IgG1 by Fab-arm exchange of the two parental antibodies; also called BsIgG1-huCD3-FEAL×CD30-HeFi-I-FEAR
[5]
  binding result: no binding (tested: 10 µg/mL)
[6]
  cytotoxicity IC50 (µg/mL) average, Karpas-299 cells: 0.052 µg/mL
  cytotoxicity maximum lysis (%) average, Karpas-299 cells: 43%

B4: IgG1-CD30-hAC10-FEAR (antibody, V domains shown)
VH: QVQLVQSGAEVKKPGASVKVSCKASGYTFTDYYITWVRQAPGQGLEWMGWIYPGSGNTKYNEKFKGRVTMTRDTSISTAYMELSRLRSDDTAVYYCANYGNYWFAYWGQGTLVTVSS
VL: DIVMTQSPDSLAVSLGERATINCKASQSVDFDGDSYMNWYQQKPGQPPKLLIYAASNLESGVPDRFSGSGSGTDFTLTISSLQAEDVAVYYCQQSNEDPWTFGQGTKVEIKR
notes: as for B1
[7]
  EC50 (read off the curve): ~0.05 µg/mL
[8]
  binding result: binds

B5: IgG1-CD30-HeFi-I-FEAR (antibody, V domains shown)
VH: EVKLVESGGGLVQPGGSLRLSCATSGFTFSDYYMNWVRQPPGKALEWLGFIRNKANGYTTEFSASVMGRFTISRDDSQSILYLQMNTLRAEDSATYYCARDPPYGNPHYYAMDYWGQGTSVTVSS
VL: DIVLTQSPASLAVSLGQRATISCRASKSVSASGYNYMHWYQQKAGQPPKLLIHLASNLESGVPARFSGSGSGTDFTLNIHPVEEEDASTYYCQHSGELPFTFGSGTKLEIKR
notes: as for B1
[5]
  binding result: no binding (tested: 10 µg/mL)

B6: bsG1-huCD3-FEAL×CD30-T405-FEAR (bispecific antibody, human IgG1, kappa, lambda)
heavy 1: not shown
light 1: not shown
heavy 2: QVQLQQIGAELVRPGASVKLSCKASGYTFNNYWINWVKQRPGQGLEWIGNIYPSDSRSNYNQKFKDKATLTVDKPSSTAYMQLSSPTSEDSAVYYCTLGSYWGQGTLVTVSAASTKGPSVFPLAPSSKSTSGGTAALGCLVKDYFPEPVTVSWNSGALTSGVHTFPAVLQSSGLYSLSSVVTVPSSSLGTQTYICNVNHKPSNTKVDKRVEPKSCDKTHTCPPCPAPEFEGGPSVFLFPPKPKDTLMISRTPEVTCVVVAVSHEDPEVKFNWYVDGVEVHNAKTKPREEQYNSTYRVVSVLTVLHQDWLNGKEYKCKVSNKALPAPIEKTISKAKGQPREPQVYTLPPSREEMTKNQVSLTCLVKGFYPSDIAVEWESNGQPENNYKTTPPVLDSDGSFFLYSRLTVDKSRWQQGNVFSCSVMHEALHNHYTQKSLSLSPG
light 2: DVVMTQTPLTLSVTIGQPASISCKSSQSLSDSDGKTYLNWLLQRPGQSPKRLIYLVSKLDSGVPDRFTGSGSGTDFTLKISRVEAEDLGVYYCWQGAHFPRTFGGGTKLEIKRTVAAPSVFIFPPSDEQLKSGTASVVCLLNNFYPREAKVQWKVDNALQSGNSQESVTEQDSKDSTYSLSSTLTLSKADYEKHKVYACEVTHQGLSSPVTKSFNRGEC
notes: Bispecific IgG1 by Fab-arm exchange of the two parental antibodies; also called bsIgG1-huCD3-FEAL×CD30-T405-FEAR
[9]
  binding result: binds
[6]
  cytotoxicity IC50 (µg/mL) average, Karpas-299 cells: 0.078 µg/mL
  cytotoxicity maximum lysis (%) average, Karpas-299 cells: 41.7%
